Assay results as given in article PMC9482650, “Quantitative fragmentomics allow affinity mapping of interactomes” (Nature Communications, 2022).

B1: CLDN2, P57739 (peptide)
chain: FNSYSLTGYV
B2: ACOT8, O14734 (peptide)
chain: VKPQVSESKL
B3: SDC4, P31431 (peptide)
chain: KKAPTNEFYA
B4: PDGFRB, P09619 (peptide)
chain: PRAEAEDSFL

Experiments:
Assay in all cases: holdup assay
Design in all cases: key: below the threshold = too weak to quantify, mostly under pKd 3.1 to 4
Details in all cases: plain residues with an end cap or a label only (N-terminal biotin on a linker: ado-ado)
PTPN13_1, Q12923 = biological target: T1, PTPN13_1, Q12923
T1 sequence (Q12923 1088-1188, limits assumed, looked up): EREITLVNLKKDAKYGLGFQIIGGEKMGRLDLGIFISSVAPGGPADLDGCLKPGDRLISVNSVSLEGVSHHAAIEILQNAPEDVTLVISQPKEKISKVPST

FRMPD3, Q5JV73 = biological target: FRMPD3, Q5JV73
Chain of FRMPD3, Q5JV73 (Q5JV73 12-100): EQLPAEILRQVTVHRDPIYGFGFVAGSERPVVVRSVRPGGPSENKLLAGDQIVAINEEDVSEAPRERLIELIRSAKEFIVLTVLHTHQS

DLG1_2, Q12959 = biological target: DLG1_2, Q12959
DFNB31_1, Q9P202 = biological target: T2, DFNB31_1, Q9P202
T2 sequence (Q9P202 135-233, limits assumed, looked up): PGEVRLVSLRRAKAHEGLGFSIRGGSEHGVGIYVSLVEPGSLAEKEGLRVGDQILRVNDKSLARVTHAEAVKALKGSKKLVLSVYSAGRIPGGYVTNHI

MAGI2_3, Q86UL8 = biological target: MAGI2_3, Q86UL8
Chain of MAGI2_3, Q86UL8 (Q86UL8 600-682): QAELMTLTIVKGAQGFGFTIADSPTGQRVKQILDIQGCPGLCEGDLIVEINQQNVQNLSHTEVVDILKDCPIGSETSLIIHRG

IL16_4, Q14005 = biological target: IL16_4, Q14005
Chain of IL16_4, Q14005 (Q14005 1229-1329): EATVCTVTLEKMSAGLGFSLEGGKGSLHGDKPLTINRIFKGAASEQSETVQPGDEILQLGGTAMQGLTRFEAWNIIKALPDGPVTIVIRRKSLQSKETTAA

NHERF3_1, Q5T2W1 = biological target: T3, NHERF3_1, Q5T2W1
T3 sequence (Q5T2W1 4-100, limits assumed, looked up): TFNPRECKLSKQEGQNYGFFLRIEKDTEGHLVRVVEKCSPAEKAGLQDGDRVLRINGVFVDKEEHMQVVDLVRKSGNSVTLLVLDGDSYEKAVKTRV

NHERF3_3, Q5T2W1 = biological target: T4, NHERF3_3, Q5T2W1
T4 sequence (Q5T2W1 238-333, limits assumed, looked up): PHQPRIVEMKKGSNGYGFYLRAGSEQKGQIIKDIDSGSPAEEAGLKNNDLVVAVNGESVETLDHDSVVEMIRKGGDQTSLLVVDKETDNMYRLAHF

DLG2_3, Q15700 = biological target: DLG2_3, Q15700
GRIP2_7, Q9C0E4 = biological target: GRIP2_7, Q9C0E4
Chain of GRIP2_7, Q9C0E4 (Q9C0E4 934-1023): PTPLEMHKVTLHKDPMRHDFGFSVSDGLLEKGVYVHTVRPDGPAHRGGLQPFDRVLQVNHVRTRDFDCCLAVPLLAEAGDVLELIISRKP

GRID2IP_1, A4D2P6 = biological target: GRID2IP_1, A4D2P6
Chain of GRID2IP_1, A4D2P6 (A4D2P6 1-87): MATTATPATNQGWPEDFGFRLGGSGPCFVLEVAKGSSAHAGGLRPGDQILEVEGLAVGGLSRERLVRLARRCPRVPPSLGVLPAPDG

FRMPD1, Q5SYB0 = biological target: T5, FRMPD1, Q5SYB0
T5 sequence (Q5SYB0 52-145, limits assumed, looked up): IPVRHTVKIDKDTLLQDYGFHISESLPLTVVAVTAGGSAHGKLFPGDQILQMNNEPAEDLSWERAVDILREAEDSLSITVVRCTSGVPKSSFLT

HTRA2, O43464 = biological target: HTRA2, O43464
Chain of HTRA2, O43464 (O43464 355-458): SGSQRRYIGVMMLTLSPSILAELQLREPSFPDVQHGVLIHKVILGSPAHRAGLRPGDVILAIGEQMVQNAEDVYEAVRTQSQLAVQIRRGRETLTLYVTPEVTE

DLG1_1, Q12959 = biological target: DLG1_1, Q12959
APBA2_1, Q99767 = biological target: T6, APBA2_1, Q99767
T6 sequence (Q99767 563-664, limits assumed, looked up): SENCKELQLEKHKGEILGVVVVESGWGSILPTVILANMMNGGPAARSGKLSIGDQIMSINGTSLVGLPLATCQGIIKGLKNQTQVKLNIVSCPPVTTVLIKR

FRMPD4, Q14CM0 = biological target: FRMPD4, Q14CM0
Chain of FRMPD4, Q14CM0 (Q14CM0 67-160): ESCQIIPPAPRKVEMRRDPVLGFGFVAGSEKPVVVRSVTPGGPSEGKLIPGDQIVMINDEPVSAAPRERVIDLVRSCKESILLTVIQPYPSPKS

Inadl_2, Q8NI35 = biological target: Inadl_2, Q8NI35
Chain of Inadl_2, Q8NI35 (Q8NI35 238-335): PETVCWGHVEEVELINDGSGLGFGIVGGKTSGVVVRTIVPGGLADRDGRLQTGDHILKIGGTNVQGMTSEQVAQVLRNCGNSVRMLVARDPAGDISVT

GRIP1_7, Q9Y3R0 = biological target: T7, GRIP1_7, Q9Y3R0
T7 sequence (Q9Y3R0 999-1096, limits assumed, looked up): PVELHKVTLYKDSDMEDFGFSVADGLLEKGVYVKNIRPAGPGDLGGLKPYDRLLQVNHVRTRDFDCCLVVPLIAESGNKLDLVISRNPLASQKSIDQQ

Inadl_5, Q8NI35 = biological target: Inadl_5, Q8NI35
Chain of Inadl_5, Q8NI35 (Q8NI35 673-780): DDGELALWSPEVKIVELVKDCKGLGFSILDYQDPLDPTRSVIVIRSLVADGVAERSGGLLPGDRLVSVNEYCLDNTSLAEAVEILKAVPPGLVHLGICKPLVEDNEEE

NHERF3_4, Q5T2W1 = biological target: T8, NHERF3_4, Q5T2W1
T8 sequence (Q5T2W1 373-468, limits assumed, looked up): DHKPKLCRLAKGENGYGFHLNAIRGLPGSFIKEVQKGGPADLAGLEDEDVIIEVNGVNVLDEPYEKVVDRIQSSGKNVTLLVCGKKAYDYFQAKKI

APBA1_2, Q02410 = biological target: T9, APBA1_2, Q02410
T9 sequence (Q02410 742-832, limits assumed, looked up): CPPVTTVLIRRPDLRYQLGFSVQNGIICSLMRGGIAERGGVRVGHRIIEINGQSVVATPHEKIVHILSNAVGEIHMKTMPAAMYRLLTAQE

MAGI2_2, Q86UL8 = biological target: MAGI2_2, Q86UL8
Chain of MAGI2_2, Q86UL8 (Q86UL8 410-522): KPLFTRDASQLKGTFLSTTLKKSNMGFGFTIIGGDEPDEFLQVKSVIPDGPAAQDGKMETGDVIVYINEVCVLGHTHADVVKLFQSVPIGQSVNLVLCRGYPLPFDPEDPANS

APBA1_1, Q02410 = biological target: T10, APBA1_1, Q02410
T10 sequence (Q02410 651-752, limits assumed, looked up): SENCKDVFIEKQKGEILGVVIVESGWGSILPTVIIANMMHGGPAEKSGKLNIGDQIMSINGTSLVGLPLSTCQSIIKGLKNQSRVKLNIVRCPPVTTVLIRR

APBA3_1, O96018 = biological target: T11, APBA3_1, O96018
T11 sequence (O96018 389-490, limits assumed, looked up): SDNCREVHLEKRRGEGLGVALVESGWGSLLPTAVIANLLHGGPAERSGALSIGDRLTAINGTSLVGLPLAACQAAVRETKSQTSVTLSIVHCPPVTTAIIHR

LRRC7, Q96NW7 = biological target: T12, LRRC7, Q96NW7
T12 sequence (Q96NW7 1440-1537, limits assumed, looked up): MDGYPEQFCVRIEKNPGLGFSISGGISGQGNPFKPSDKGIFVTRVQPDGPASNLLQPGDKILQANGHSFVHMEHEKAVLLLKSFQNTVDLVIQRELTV

DLG1_3, Q12959 = biological target: DLG1_3, Q12959

| pKd (PTPN13_1, Q12923) | pKd (FRMPD3, Q5JV73) | pKd (DLG1_2, Q12959) | pKd (DFNB31_1, Q9P202) | pKd (MAGI2_3, Q86UL8) | pKd (IL16_4, Q14005) | pKd (NHERF3_1, Q5T2W1) | pKd (NHERF3_3, Q5T2W1) | pKd (DLG2_3, Q15700) | pKd (GRIP2_7, Q9C0E4) | pKd (GRID2IP_1, A4D2P6) | pKd (FRMPD1, Q5SYB0) | pKd (HTRA2, O43464) | pKd (DLG1_1, Q12959) | pKd (APBA2_1, Q99767) | pKd (FRMPD4, Q14CM0) | pKd (Inadl_2, Q8NI35) | pKd (GRIP1_7, Q9Y3R0) | pKd (Inadl_5, Q8NI35) | pKd (NHERF3_4, Q5T2W1) | other results | Binder |
| --- | --- | --- | --- | --- | --- | --- | --- | --- | --- | --- | --- | --- | --- | --- | --- | --- | --- | --- | --- | --- | --- |
| below the threshold | below the threshold | 3.49 | below the threshold | 3.63 | below the threshold | 4.35 | below the threshold | below the threshold | below the threshold | below the threshold | below the threshold | 4.48 | below the threshold | below the threshold | below the threshold | below the threshold | below the threshold | 3.6 | below the threshold | pKd (APBA1_2, Q02410): 4; pKd (MAGI2_2, Q86UL8): 3.67; pKd (APBA1_1, Q02410): below the threshold; pKd (APBA3_1, O96018): below the threshold; pKd (LRRC7, Q96NW7): below the threshold; pKd (DLG1_3, Q12959): below the threshold | B1 |
| below the threshold | below the threshold | below the threshold | 4.29 | below the threshold | below the threshold | 5.33 | below the threshold | 3.74 | below the threshold | below the threshold | below the threshold | below the threshold | below the threshold | below the threshold | 3.8 | below the threshold | below the threshold | below the threshold | below the threshold | pKd (APBA1_2, Q02410): below the threshold; pKd (MAGI2_2, Q86UL8): 3.64; pKd (APBA1_1, Q02410): below the threshold; pKd (APBA3_1, O96018): below the threshold; pKd (LRRC7, Q96NW7): below the threshold; pKd (DLG1_3, Q12959): below the threshold | B2 |
| below the threshold | 3.84 | below the threshold | below the threshold | below the threshold | below the threshold | 3.79 | below the threshold | 3.62 | below the threshold | below the threshold | below the threshold | below the threshold | below the threshold | below the threshold | 3.49 | below the threshold | below the threshold | below the threshold | below the threshold | pKd (APBA1_2, Q02410): below the threshold; pKd (MAGI2_2, Q86UL8): below the threshold; pKd (APBA1_1, Q02410): below the threshold; pKd (APBA3_1, O96018): below the threshold; pKd (LRRC7, Q96NW7): below the threshold; pKd (DLG1_3, Q12959): below the threshold | B3 |
| below the threshold | 3.56 | 3.57 | 3.62 | 3.55 | below the threshold | 4.76 | below the threshold | below the threshold | below the threshold | below the threshold | below the threshold | below the threshold | below the threshold | 3.66 | 4.57 | below the threshold | below the threshold | below the threshold | below the threshold | pKd (APBA1_2, Q02410): 3.65; pKd (MAGI2_2, Q86UL8): 3.55; pKd (APBA1_1, Q02410): 3.68; pKd (APBA3_1, O96018): below the threshold; pKd (LRRC7, Q96NW7): 3.92; pKd (DLG1_3, Q12959): 3.54 | B4 |
